In publication PMC3694950:

Target: mitochondrial large-conductance Ca2+-regulated potassium channel (mitoBKCa channel) (human (endogenous in U-87 MG)) (UniProt Q12791)
Sequence of UniProt Q12791 (Q12791 whole entry, looked up): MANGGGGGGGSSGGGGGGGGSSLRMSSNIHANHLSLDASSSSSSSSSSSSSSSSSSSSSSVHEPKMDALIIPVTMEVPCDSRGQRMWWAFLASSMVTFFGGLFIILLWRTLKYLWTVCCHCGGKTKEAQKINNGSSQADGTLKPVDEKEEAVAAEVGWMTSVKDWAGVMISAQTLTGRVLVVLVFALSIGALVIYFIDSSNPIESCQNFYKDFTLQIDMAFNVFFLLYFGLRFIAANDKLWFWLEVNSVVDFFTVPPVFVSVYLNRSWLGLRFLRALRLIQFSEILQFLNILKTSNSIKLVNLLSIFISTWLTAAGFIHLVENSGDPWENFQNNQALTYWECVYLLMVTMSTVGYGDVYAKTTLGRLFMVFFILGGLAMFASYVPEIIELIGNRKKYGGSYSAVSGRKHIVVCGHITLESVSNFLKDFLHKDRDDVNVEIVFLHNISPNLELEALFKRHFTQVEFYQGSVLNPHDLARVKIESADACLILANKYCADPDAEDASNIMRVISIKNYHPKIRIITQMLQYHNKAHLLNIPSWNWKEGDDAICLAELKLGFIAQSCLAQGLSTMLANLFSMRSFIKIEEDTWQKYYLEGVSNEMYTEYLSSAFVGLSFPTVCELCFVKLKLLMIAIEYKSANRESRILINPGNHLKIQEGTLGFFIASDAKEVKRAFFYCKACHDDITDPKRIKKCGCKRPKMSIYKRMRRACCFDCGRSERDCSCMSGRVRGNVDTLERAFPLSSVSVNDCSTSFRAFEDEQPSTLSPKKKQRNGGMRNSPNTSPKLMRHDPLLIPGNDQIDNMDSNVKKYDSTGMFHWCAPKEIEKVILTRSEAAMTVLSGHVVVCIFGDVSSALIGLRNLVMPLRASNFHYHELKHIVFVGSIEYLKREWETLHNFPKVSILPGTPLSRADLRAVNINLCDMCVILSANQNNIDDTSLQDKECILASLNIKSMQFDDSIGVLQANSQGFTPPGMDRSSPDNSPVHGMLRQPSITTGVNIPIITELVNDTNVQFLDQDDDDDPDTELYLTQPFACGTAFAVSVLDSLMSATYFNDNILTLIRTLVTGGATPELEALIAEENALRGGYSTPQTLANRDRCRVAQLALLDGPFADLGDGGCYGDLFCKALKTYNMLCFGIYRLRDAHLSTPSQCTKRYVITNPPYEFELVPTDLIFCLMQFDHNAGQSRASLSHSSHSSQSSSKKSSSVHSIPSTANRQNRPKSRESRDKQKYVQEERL

## iberiotoxin (from UniProt P24663 1-37) (peptide)
  open probability (Po) of the mitoBKCa channel in patch-clamped mitoplasts (inside-out) after 100 nM iberiotoxin; control Po 0.95: 0.15 Po
